Laboratory results published in article PMC4163015 (Cell, 2014).

Target: T1, heterodimeric cofactor Ufd1p/Npl4p (S. cerevisiae, UniProt P53044 1-361; P33755 1-580)
T1 sequence (looked up) 1: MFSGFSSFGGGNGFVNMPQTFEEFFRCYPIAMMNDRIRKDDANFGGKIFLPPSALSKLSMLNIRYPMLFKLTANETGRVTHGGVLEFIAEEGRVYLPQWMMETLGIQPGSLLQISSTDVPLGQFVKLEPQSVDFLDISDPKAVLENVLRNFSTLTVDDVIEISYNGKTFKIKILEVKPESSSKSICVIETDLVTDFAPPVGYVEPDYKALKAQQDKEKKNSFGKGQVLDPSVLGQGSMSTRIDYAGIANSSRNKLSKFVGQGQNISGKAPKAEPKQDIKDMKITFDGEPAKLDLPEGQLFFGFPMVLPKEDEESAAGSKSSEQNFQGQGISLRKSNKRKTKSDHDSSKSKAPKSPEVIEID
T1 sequence (looked up) 2: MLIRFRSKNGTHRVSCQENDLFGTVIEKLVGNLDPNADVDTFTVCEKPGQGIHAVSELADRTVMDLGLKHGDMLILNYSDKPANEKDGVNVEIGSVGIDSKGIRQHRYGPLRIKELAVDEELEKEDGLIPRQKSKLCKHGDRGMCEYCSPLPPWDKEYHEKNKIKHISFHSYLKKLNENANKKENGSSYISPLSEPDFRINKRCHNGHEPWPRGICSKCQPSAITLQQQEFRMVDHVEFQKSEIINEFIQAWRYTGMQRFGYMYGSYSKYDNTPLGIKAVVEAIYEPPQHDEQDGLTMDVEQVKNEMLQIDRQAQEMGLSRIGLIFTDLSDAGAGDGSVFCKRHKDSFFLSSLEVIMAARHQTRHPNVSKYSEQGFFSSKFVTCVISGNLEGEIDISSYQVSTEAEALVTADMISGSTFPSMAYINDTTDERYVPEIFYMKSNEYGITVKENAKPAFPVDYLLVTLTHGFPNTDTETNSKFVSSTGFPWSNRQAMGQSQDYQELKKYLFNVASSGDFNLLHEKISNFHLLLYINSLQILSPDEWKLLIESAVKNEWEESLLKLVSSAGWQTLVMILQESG
Assay: SEC

B1: Cdc48p ATPase (enzyme, S. cerevisiae, UniProt P25694 1-835, looked up)
chain: MGEEHKPLLDASGVDPREEDKTATAILRRKKKDNMLLVDDAINDDNSVIAINSNTMDKLELFRGDTVLVKGKKRKDTVLIVLIDDELEDGACRINRVVRNNLRIRLGDLVTIHPCPDIKYATRISVLPIADTIEGITGNLFDVFLKPYFVEAYRPVRKGDHFVVRGGMRQVEFKVVDVEPEEYAVVAQDTIIHWEGEPINREDEENNMNEVGYDDIGGCRKQMAQIREMVELPLRHPQLFKAIGIKPPRGVLMYGPPGTGKTLMARAVANETGAFFFLINGPEVMSKMAGESESNLRKAFEEAEKNAPAIIFIDEIDSIAPKRDKTNGEVERRVVSQLLTLMDGMKARSNVVVIAATNRPNSIDPALRRFGRFDREVDIGIPDATGRLEVLRIHTKNMKLADDVDLEALAAETHGYVGADIASLCSEAAMQQIREKMDLIDLDEDEIDAEVLDSLGVTMDNFRFALGNSNPSALRETVVESVNVTWDDVGGLDEIKEELKETVEYPVLHPDQYTKFGLSPSKGVLFYGPPGTGKTLLAKAVATEVSANFISVKGPELLSMWYGESESNIRDIFDKARAAAPTVVFLDELDSIAKARGGSLGDAGGASDRVVNQLLTEMDGMNAKKNVFVIGATNRPDQIDPAILRPGRLDQLIYVPLPDENARLSILNAQLRKTPLEPGLELTAIAKATQGFSGADLLYIVQRAAKYAIKDSIEAHRQHEAEKEVKVEGEDVEMTDEGAKAEQEPEVDPVPYITKEHFAEAMKTAKRSVSDAELRRYEAYSQQMKASRGQFSNFNFNDAPLGTTATDNANSNNSAPSGAGAAFGSNAEEDDDLYS
binding result: binds
